Assay results: US20170224836A1 (Novartis, published 2017)
Where two headings read alike, the source gives them in different places.

T1: hCDH6aa54-615 APPavi (human, UniProt P55285 54-615)
T1 sequence: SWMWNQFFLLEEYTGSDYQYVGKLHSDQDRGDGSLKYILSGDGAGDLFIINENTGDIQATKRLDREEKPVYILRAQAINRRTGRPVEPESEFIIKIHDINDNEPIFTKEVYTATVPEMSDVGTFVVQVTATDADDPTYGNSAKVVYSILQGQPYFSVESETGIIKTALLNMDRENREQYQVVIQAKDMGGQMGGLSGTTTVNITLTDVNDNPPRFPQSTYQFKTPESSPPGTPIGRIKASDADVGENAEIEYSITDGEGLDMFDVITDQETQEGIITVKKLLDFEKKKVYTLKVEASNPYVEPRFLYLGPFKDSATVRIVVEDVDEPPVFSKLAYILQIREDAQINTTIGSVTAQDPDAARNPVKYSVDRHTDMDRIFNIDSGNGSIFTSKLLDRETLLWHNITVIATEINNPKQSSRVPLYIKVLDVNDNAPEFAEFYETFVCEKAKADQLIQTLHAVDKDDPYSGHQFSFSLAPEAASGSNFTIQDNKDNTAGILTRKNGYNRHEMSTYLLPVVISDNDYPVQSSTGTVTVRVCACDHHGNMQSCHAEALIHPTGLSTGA

T2: CDH6 wt (human, UniProt P55285 54-615)
T2 sequence: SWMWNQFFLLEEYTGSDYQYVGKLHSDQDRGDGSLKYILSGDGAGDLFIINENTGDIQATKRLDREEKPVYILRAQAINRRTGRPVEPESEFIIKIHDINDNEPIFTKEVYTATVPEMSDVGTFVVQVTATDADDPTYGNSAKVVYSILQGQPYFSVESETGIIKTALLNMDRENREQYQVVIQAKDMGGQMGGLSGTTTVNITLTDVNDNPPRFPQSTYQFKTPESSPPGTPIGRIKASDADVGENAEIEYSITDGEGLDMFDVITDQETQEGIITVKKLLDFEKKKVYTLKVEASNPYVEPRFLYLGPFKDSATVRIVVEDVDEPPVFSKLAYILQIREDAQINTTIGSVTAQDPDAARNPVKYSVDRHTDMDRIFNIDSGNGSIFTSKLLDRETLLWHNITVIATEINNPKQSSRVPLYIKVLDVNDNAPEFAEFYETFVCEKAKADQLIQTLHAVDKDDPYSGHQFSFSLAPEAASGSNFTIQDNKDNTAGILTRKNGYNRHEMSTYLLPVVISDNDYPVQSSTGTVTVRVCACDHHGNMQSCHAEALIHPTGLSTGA

T3: cynomolgus CDH6 on cells (cynomolgus, UniProt A0A2K5TW62 54-790)
T3 sequence: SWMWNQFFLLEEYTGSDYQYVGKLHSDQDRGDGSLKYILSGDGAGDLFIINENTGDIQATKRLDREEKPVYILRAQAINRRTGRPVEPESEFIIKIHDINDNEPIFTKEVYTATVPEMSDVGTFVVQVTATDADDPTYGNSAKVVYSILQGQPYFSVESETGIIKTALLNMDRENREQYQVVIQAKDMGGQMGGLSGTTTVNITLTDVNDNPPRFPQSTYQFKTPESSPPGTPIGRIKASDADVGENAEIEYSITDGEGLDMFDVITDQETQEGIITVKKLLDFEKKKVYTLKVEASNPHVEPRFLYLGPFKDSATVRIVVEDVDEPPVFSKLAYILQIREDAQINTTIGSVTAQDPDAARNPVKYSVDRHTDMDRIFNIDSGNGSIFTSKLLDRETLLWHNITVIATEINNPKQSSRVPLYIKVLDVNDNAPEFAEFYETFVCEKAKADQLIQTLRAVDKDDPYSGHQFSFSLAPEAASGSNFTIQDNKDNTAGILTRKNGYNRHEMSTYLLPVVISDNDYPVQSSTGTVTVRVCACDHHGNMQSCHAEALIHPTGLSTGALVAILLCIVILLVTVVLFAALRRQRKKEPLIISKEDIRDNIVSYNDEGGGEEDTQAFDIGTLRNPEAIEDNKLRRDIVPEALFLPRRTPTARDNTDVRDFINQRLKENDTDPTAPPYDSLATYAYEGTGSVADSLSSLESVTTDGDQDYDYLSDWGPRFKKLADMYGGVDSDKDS

T4: human CDH6 on cells (human, UniProt P55285 54-790)
T4 sequence: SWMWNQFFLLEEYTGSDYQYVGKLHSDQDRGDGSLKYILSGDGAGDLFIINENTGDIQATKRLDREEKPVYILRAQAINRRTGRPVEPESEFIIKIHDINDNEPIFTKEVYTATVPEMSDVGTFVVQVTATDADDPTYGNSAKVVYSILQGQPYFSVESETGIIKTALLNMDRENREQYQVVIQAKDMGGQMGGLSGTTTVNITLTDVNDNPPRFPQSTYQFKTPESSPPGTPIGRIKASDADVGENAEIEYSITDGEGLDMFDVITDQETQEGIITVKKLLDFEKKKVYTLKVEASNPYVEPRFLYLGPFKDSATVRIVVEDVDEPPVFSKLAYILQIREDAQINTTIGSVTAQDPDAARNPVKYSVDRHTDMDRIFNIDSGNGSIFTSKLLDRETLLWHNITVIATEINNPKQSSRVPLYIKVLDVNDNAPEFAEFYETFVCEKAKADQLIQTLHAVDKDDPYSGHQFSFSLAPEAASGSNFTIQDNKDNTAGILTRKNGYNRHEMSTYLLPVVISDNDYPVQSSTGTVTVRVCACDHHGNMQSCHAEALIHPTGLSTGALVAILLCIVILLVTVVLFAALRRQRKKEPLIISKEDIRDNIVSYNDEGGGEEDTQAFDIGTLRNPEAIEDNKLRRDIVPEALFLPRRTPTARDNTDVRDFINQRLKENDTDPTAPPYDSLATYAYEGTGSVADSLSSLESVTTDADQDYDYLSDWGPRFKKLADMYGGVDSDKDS

T5: rat CDH6 on cells (rat, UniProt P55280 54-789)
T5 sequence (looked up): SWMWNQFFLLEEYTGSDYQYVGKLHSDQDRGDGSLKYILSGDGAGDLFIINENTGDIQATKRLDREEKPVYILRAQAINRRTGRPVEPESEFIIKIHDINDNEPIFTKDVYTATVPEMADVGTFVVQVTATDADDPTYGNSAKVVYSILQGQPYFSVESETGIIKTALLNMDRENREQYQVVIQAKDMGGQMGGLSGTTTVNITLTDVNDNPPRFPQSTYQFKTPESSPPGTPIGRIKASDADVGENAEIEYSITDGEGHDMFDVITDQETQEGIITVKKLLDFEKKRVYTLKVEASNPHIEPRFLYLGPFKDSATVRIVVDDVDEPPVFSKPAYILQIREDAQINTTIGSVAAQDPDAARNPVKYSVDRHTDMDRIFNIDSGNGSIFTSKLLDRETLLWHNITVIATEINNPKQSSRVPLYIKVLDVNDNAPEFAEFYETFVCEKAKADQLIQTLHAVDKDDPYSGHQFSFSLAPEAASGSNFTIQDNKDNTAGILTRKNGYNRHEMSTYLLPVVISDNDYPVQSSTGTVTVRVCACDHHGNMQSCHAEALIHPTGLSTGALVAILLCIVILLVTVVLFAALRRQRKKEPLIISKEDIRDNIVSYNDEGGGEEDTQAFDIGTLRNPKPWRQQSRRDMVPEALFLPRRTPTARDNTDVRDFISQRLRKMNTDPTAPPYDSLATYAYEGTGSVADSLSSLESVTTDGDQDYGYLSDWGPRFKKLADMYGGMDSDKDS

T6: mouse CDH6 on cells (mouse, UniProt P97326 54-790)
T6 sequence (looked up): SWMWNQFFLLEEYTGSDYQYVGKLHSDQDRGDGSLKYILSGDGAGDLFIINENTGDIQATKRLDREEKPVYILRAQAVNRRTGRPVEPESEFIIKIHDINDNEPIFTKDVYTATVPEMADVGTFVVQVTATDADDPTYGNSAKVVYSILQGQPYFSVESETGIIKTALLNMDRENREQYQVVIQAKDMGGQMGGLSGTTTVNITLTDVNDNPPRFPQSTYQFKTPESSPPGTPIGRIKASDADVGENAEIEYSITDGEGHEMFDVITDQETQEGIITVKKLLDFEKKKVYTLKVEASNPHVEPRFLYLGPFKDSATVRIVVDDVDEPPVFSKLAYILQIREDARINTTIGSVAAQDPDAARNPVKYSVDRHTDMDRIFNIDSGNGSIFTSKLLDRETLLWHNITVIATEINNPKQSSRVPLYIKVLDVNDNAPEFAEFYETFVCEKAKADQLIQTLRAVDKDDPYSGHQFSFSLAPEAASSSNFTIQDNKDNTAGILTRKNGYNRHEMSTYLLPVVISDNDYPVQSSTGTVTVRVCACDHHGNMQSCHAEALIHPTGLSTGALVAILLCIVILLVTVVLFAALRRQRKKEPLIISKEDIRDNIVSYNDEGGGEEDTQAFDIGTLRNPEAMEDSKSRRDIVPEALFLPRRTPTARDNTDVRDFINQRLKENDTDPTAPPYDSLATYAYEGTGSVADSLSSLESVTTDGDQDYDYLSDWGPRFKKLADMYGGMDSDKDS


Key:
hCDH6aa54-615 APPavi [1] = target: T1, hCDH6aa54-615 APPavi; assay: SPR binning
hCDH6aa54-615 APPavi [2] = target: T1, hCDH6aa54-615 APPavi; assay: SPR binning; remark: listed apart in the source
hCDH6aa54-615 APPavi [3] = target: T1, hCDH6aa54-615 APPavi; assay: SPR binning; remark: listed apart in the source
hCDH6aa54-615 APPavi [4] = target: T1, hCDH6aa54-615 APPavi; assay: SPR binning; remark: listed apart in the source
hCDH6aa54-615 APPavi [5] = target: T1, hCDH6aa54-615 APPavi; assay: SPR binning; remark: listed apart in the source
CDH6 wt = target: T2, CDH6 wt; assay: ELISA on coated CDH6-wt
hCDH6aa54-615 APPavi [6] = target: T1, hCDH6aa54-615 APPavi; assay: SPR binning; remark: listed apart in the source
hCDH6aa54-615 APPavi [7] = target: T1, hCDH6aa54-615 APPavi; assay: SPR binning; remark: listed apart in the source
cynomolgus CDH6 on cells = target: T3, cynomolgus CDH6 on cells; assay: FACS on CHO-cynoCDH6 cells
human CDH6 on cells [8] = target: T4, human CDH6 on cells; assay: FACS on OVCAR8-CDH6+ cells, EC50 [M] table
human CDH6 on cells [9] = target: T4, human CDH6 on cells; assay: FACS on CHO-TO-humanCDH6 cells plus tetracycline
rat CDH6 on cells = target: T5, rat CDH6 on cells; assay: FACS on CHO-ratCDH6 cells
mouse CDH6 on cells = target: T6, mouse CDH6 on cells; assay: FACS on CHO-mouseCDH6 cells
human CDH6 on cells [10] = target: T4, human CDH6 on cells; assay: FACS on OVCAR3 cells

Binder	response of secondary antibody on primary antibody-CDH6 complex (hCDH6aa54-615 APPavi [1])	response of secondary antibody on primary antibody-CDH6 complex (hCDH6aa54-615 APPavi [2])	response of secondary antibody on primary antibody-CDH6 complex (hCDH6aa54-615 APPavi [3])	response of secondary antibody on primary antibody-CDH6 complex (hCDH6aa54-615 APPavi [4])	response of secondary antibody on primary antibody-CDH6 complex (hCDH6aa54-615 APPavi [5])	EC50 (read off the curve) (CDH6 wt)	response of secondary antibody on primary antibody-CDH6 complex (hCDH6aa54-615 APPavi [6])	response of secondary antibody on primary antibody-CDH6 complex (hCDH6aa54-615 APPavi [7])	EC50 (read off the curve) (cynomolgus CDH6 on cells)	EC50 (human CDH6 on cells [8])	EC50 (read off the curve) (human CDH6 on cells [9])	EC50 (read off the curve) (rat CDH6 on cells)	EC50 (read off the curve) (mouse CDH6 on cells)	EC50 (read off the curve) (human CDH6 on cells [10])
NOV0710 (antibody, human IgG1, kappa, V domains shown) VH: QVQLLESGGGLVQPGGSLRLSCAASGFTFSSYAMSWVRQAPGKGLEWVSVIRSSGSSTYYADSVKGRFTISRDNSKNTLYLQMNSLRAEDTAVYYCARGGGYFDYWGQGTLVTVSS VL: DIQMTQSPSSLSASVGDRVTITCRASQSISLWLNWYQQKPGKAPKLLIYAASTLQSGVPSRFSGSGSGTDFTLTISSLQPEDFATYYCQQYYTSPYTFGQGTKVEIKR	21.9	-3.56	-2.17	8.84	10.6	~200000 pM	32.7	15	–	–	–	–	–	–
NOV0712-sulfo-SPDB-DM4 (antibody, human IgG1, kappa, V domains shown, sulfo-SPDB-DM4 on primary amines, sites not stated) VH: QVQLLESGGGLVQPGGSLRLSCAASGFTFSSHGMHWVRQAPGKGLEWVSVISGSGSNTGYADSVKGRFTISRDNSKNTLYLQMNSLRAEDTAVYYCARQWGSYAFDSWGQGTLVTVSS VL: DIQMTQSPSSLSASVGDRVTITCRASQSISSYLNWYQQKPGKAPKLLIYAVSTLQSGVPSRFSGSGSGTDFTLTISSLQPEDFATYYCQQSGTFPPTTFGQGTKVEIKR	–	–	–	–	–	–	–	–	~700 pM	715 pM	~500 pM	~700 pM	~700 pM	~400 pM
